Measured values from patent publication US20180085432A1, “STING (Stimulator of Interferon Genes), A Regulator of Innate Immune Responses” (University of Miami, priority 2008, published 2018).

Tests used:
S366 peptide = test: screening of kinases for S366 of STING (33P-ATP); type: biochemical; details: for Fold inducton: S366 peptide vs A366 peptide; for Activity, S366 peptide: kinase mixed with peptide and 33P-ATP
Description: (§1) The activity of 217 protein kinase targets were evaluated against 2 peptides (A366 and S366) as substrate. Protein kinases were mixed with each peptide and ^33P-ATP and then activity (CPM) was measured. The below kinases were identified as phosphorylating S366 in STING. Identification of kinases which target this serine opens up novel avenues for drug discovery. Drugs that target this association may inhibit STING activity and be used for therapeutic purposes to inhibit STING activity. STING over activity may lead to inflammatory diseases which can exacerbate cancer.

A366 peptide = test: screening of kinases for S366 of STING (33P-ATP); type: biochemical; details: kinase mixed with peptide and 33P-ATP
Description: as §1

Row | Molecule | Activity (cpm), kinase mixed with peptide and 33P-ATP (S366 peptide of STING) | Activity (cpm), kinase mixed with peptide and 33P-ATP (A366 peptide of STING) | Fold inducton (S366 peptide) | Activity, S366 peptide (S366 peptide) | Activity, A366 peptide (A366 peptide)
1 | CK1 (isoform illegible) (enzyme) | 26200 cpm | 15600 cpm |  |  | 
2 | NEK7 (from UniProt Q8TDX7) (enzyme) | 19100 cpm | 3620 cpm |  |  | 
3 | PKC (isoform illegible) (enzyme) | 12800 cpm | 6810 cpm |  |  | 
4 | NEK7: protein kinase |  |  | 5.28 | 19112 cpm | 3619 cpm
5 | NEK6: protein kinase |  |  | 6.45 | 35556 cpm | 5512 cpm
6 | PIM2 (from UniProt Q9P1W9) (enzyme) | 3720 cpm | 1410 cpm |  |  | 
7 | PIM2: protein kinase |  |  | 2.63 | 3715 cpm | 1414 cpm
8 | IRAK4 (enzyme) MNKPITPSTYVRCLNVGLIRKLSDFIDPQEGWKKLAVAIKKPSGDDRYNQFHIRRFEALLQTGKSPTSELLFDWGTTNCTVGDLVDLLIQNEFFAPASLLLPDAVPKTANTLPSKEAITVQQKQMPFCDKDRTLMTPVQNLEQSYMPPDSSSPENKSLEVSDTRFHSFSFYELKNVTNNFDERPISVGGNKMGEGGFGVVYKGYVNNTTVAVKKLAAMVDITTEELKQQFDQEIKVMAKCQHENLVELLGFSSDGDDLCLVYVYMPNGSLLDRLSCLDGTPPLSWHMRCKIAQGAANGINFLHENHHIHRDIKSANILLDEAFTAKISDFGLARASEKFAQTVMTSRIVGTTAYMAPEALRGEITPKSDIYSFGVVLLEIITGLPAVDEHREPQLLLDIKEEIEDEEKTIEDYIDKKMNDADSTSVEAMYSVASQCLHEKKNKRPDIKKVQQLLQEMTAS | 50400 cpm | 7440 cpm | 6.77 | 50353 cpm | 7435 cpm
9 | MEKK1 (enzyme) NQKCKEKMEAEEEEALAIAMAMSASQDALPIVPQLQVENGEDIIIIQQDTPETLPGHTKAKQPYREDTEWLKGQQIGLGAFSSCYQAQDVGTGTLMAVKQVTYVRNTSSEQEEVVEALREEIRMMSHLNHPNIIRMLGATCEKSNYNLFIEWMAGGSVAHLLSKYGAFKESVVINYTEQLLRGLSYLHENQIIHRDVKGANLLIDSTGQRLRIADFGAAARLASKGTGAGEFQGQLLGTIAFMAPEVLRGQQYGRSCDVWSVGCAIIEMACAKPPWNAEKHSNHLALIFKIASATTAPSIPSHLSPGLRDVALRCLELQPQDRPPSRELLKHPVFRTTW | 24900 cpm | 11300 cpm | 2.20 | 24866 cpm | 11316 cpm
10 | NEK2 (enzyme) MPSRAEDYEVLYTIGTGSYGRCQKIRRKSDGKILVWKELDYGSMTEAEKQMLVSEVNLLRELKHPNIVRYYDRIIDRTNTTLYIVMEYCEGGDLASVITKGTKERQYLDEEFVLRVMTQLTLALKECHRRSDGGHTVLHRDLKPANVFLDGKQNVKLGDFGLARILNHDTSFAKTFVGTPYYMSPEQMNRMSYNEKSDIWSLGCLLYELCALMPPFTAFSQKELAGKIREGKFRRIPYRYSDELNEIITRMLNLKDYHRPSVEEILENPLIADLVADEQRRNLERRGRQLGEPEKSQDSSPVLSELKLKEIQLQERERALKAREERLEQKEQELCVRERLAEDKLARAENLLKNYSLLKERKFLSLASNPELLNLPSSVIKKKVHFSGESKENIMRSENSESQLTSKSKCKDLKKRLHAAQLRAQALSDIEKNYQLKSRQILGMR | 162000 cpm | 8700 cpm | 18.65 | 162331 cpm | 8702 cpm

More lines, main results first:

Row | Activity (cpm), kinase mixed with peptide and 33P-ATP (S366 peptide of STING) | Activity (cpm), kinase mixed with peptide and 33P-ATP (A366 peptide of STING) | Molecule | Fold inducton (S366 peptide) | Activity, S366 peptide (S366 peptide) | Activity, A366 peptide (A366 peptide)
11 | 35600 cpm | 5510 cpm | NEK6 (from UniProt Q9HC98) (enzyme) |  |  | 
12 | 16000 cpm | 1330 cpm | RIPK5 (enzyme) SICSQFRTRLNSSHEAFAASLRQLEAGHSGRLEKTEDLWLRVRKDHAPRLARLSLESCSLQDVLLHRKPKLGQELGRGQYGVVYLCDNWGGHFPCALKSVVPPDEKHWNDLALEFHYMRSLPKHERLVDLHGSVIDYNYGGGSSIAVLLIMERLHRDLYTGLKAGLTLETRLQIALDVVEGIRFLHSQGLVHRDIKLKNVLLDKQNRAKITDLGFCKPEAMMSGSIVGTPIHMAPELFTGKYDNSVDVYAFGILFWYICSGSVKLPEAFERCASKDHLWNNVRRGARPERLPVFDEECWQLMEACWDGDPLKRPLLGIVQPMLQGIMNRLCKSNSEQPNRGLDDST | 12.03 | 15966 cpm | 1327 cpm
13 | 13100 cpm | 7260 cpm | GRK7 (enzyme) MVDMGALDNLIANTAYLQARKPSDCDSKELQRRRRSLALPGLQGCAELRQKLSLNFHSLCEQQPIGRRLFRDFLATVPTFRKAATFLEDVQNWELAEEGPTKDSALQGLVATCASAPAPGNPQPFLSQAVATKCQAATTEEERVAAVTLAKAEAMAFLQEQPFKDFVTSAFYDKFLQWKLFEMQPVSDKYFTEFRVLGKGGFGEVCAVQVKNTGKMYACKKLDKKRLKKKGGEKMALLEKEILEKVSSPFIVSLAYAFESKTHLCLVMSLMNGGDLKFHIYNVGTRGLDMSRVIFYSAQIACGMLHLHELGIVYRDMKPENVLLDDLGNCRLSDLGLAVEMKGGKPITQRAGTNGYMAPEILMEKVSYSYPVDWFAMGCSIYEMVAGRTPFKDYKEKVSKEDLKQRTLQDEVKFQHDNFTEEAKDICRLFLAKKPEQRLGSREKSDDPRKHHFFKTINFPRLEAGLIEPPFVPDPSVVYAKDIAEIDDFSEVRGVEFDDKDKQFFKNFATGAVPIAWQEEIIETGLFEELNDPNRPTGCEEGNSSKSGVCLLL | 1.81 | 13124 cpm | 7263 cpm
14 | 26300 cpm | 6980 cpm | NEK9 (enzyme) MSVLGEYERHCDSINSDFGSESGGCGDSSPGPSASQGPRAGGGAAEQEELHYIPIRVLGRGAFGEATLYRRTEDDSLVVWKEVDLTRLSEKERRDALNEIVILALLQHDNIIAYYNHFMDNTTLLIELEYCNGGNLYDKILRQKDKLFEEEMVVWYLFQIVSAVSCIHKAGILHRDIKTLNIFLTKANLIKLGDYGLAKKLNSEYSMAETLVGTPYYMSPELCQGVKYNFKSDIWAVGCVIFELLTLKRTFDATNPLNLCVKIVQGIRAMEVDSSQYSLELIQMVHSCLDQDPEQRPTADELLDRPLLRKRRREMEEKVTLLNAPTKRPRSSTVTEAPIAVVTSRTSEVYVWGGGKSTPQKLDVIKSGCSARQVCAGNTHFAVVTVEKELYTWVNMQGGTKLHGQLGHGDKASYRQPKHVEKLQGKAIRQVSCGDDFTVCVTDEGQLYAFGSDYYGCMGVDKVAGPEVLEPMQLNFFLSNPVEQVSCGDNHVVVLTRNKEVYSWGCGEYGRLGLDSEEDYYTPQKVDVPKALIIVAVQCGCDGTFLLTQSGKVLACGLNEFNKLGLNQCMSGIINHEAYHEVPYTTSFTLAKQLSFYKIRTIAPGKTHTAAIDERGRLLTFGCNKCGQLGVGNYKKRLGINLLGGPLGGKQVIRVSCGDEFTIAATDDNHIFAWGNGGNGRLAMTPTERPHGSDICTSWPRPIFGSLHHVPDLSCRGWHTILIVEKVLNSKTIRSNSSGLSIGTVFQSSSPGGGGGGGGGEEEDSQQESETPDPSGGFRGTMEADRGMEGLISPTEAMGNSNGASSSCPGWLRKELENAEFIPMPDSPSPLSAAFSESEKDTLPYEELQGLKVASEAPLEHKPQVEASSPRLNPAVTCAGKGTPLTPPACACSSLQVEVERLQGLVLKCLAEQQKLQQENLQIFTQLQKLNKKLEGGQQVGMHSKGTQTAKEEMEMDPKPDLDSDSWCLLGTDSCRPSL | 3.77 | 26284 cpm | 6977 cpm
15 | 6890 cpm | 2430 cpm | IKKα (enzyme) MERPPGLRPGAGGPWEMRERLGTGGFGNVCLYQHRELDLKIAIKSCRLELSTKNRERWCHEIQIMKKLNHANVVKACDVPEELNILIHDVPLLAMEYCSGGDLRKLLNKPENCCGLKESQILSLLSDIGSGIRYLHENKIIHRDLKPENIVLQDVGGKIIHKIIDLGYAKDVDQGSLCTSFVGTLQYLAPELFENKPYTATVDYWSFGTMVFECIAGYRPFLHHLQPFTWHEKIKKKDPKCIFACEEMSGEVRFSSHLPQPNSLCSLVVEPMENWLQLMLNWDPQQRGGPVDLTLKQPRCFVLMDHILNLKIVHILNMTSAKIISFLLPPDESLHSLQSRIERETGINTGSQELLSETGISLDPRKPASQCVLDGVRGCDSYMVYLFDKSKTVYEGPFASRSLSDCVNYIVQDSKIQLPIIQLRKVWAEAVHYVSGLKEDYSRLFQGQRAAMLSLLRYNANLTKMKNTLISASQQLKAKLEFFHKSIQLDLERYSEQMTYGISSEKMLKAWKEMEEKAIHYAEVGVIGYLEDQIMSLHAEIMELQKSPYGRRQGDLMESLEQRAIDLYKQLKHRPSDHSYSDSTEMVKIIVHTVQSQDRVLKELFGHLSKLLGCKQKIIDLLPKVEVALSNIKEADNTVMFMQGKRQKEIWHLLKIACTQSSARSLVGSSLEGAVTPQTSAWLPPTSAEHDHSLSCVVTPQDGETSAQMIEENLNCLGHLSTIIHEANEEQGNSMMNLDWSWLTE | 2.83 | 6889 cpm | 2432 cpm
